# Where a chain is given by its changes, count along the chain named. In names and notes the source's numbering stands.
# B1: CE115HA000 Y100aA one-arm antibody (antibody, human IgG1, kappa, L234A L235A, N297A, name in Kabat numbering)
# heavy: QVQLVESGGGVVQPGRSLRLSCAASGFTFSNAWMHWVRQAPGKGLEWVAQIKAKSNNYATYYAESVKGRFTISRDDSKNSLYLQMNSLKTEDTAVYYCRYVHYGAYAGVDAWGQGTTVTVSSASTKGPSVFPLAPSSKSTSGGTAALGCLVKDYFPEPVTVSWNSGALTSGVHTFPAVLQSSGLYSLSSVVTVPSSSLGTQTYICNVNHKPSNTKVDKKVEPKSCDKTHTCPPCPAPEAAGGPSVFLFPPKPKDTLMISRTPEVTCVVVDVSHEDPEVKFNWYVDGVEVHNAKTKPREEQYASTYRVVSVLTVLHQDWLNGKEYKCKVSNKALPAPIEKTISKAKGQPREPQVYTLPPSRCELTKNQVSLSCAVKGFYPSDIAVEWESNGQPENNYKTTPPVLDSDGSFFLVSKLTVDKSRWQQGNVFSCSVMHEALHNHYTQKSLSLSPDYKDDDDK
# chain: EPKSSDKTHTCPPCPAPELLGGPSVFLFPPKPKDTLMISRTPEVTCVVVDVSHEDPEVKFNWYVDGVEVHNAKTKPREEQYNSTYRVVSVLTVLHQDWLNGKEYKCKVSNKALPAPIEKTISKAKGQPREPQVCTLPPSRDELTKNQVSLWCLVKGFYPSDIAVEWESNGQPENNYKTTPPVLDSDGSFFLYSKLTVDKSRWQQGNVFSCSVMHEALHNRYTQKSLSLSP
# light: DIVMTQSPLSLPVTPGEPASISCRSSQSLVHSNRNTYLHWYQQKPGQAPRLLIYKVSNRFSGVPDRFSGSGSGTDFTLKISRVEAEDVGVYYCGQGTQVPYTFGQGTKLEIKRTVAAPSVFIFPPSDEQLKSGTASVVCLLNNFYPREAKVQWKVDNALQSGNSQESVTEQDSKDSTYSLSSTLTLSKADYEKHKVYACEVTHQGLSSPVTKSFNRGEC
# notes: one-arm antibody (one Fab)
# B2: CE115HA000 Y100aS one-arm antibody (antibody, human IgG1, kappa, L234A L235A, N297A, name in Kabat numbering)
# heavy: B1 heavy with A107S
# chain: B1 chain
# light: B1 light
# notes: one-arm antibody (one Fab)
# B3: CE115HA000 Y100aL one-arm antibody (antibody, human IgG1, kappa, L234A L235A, N297A, name in Kabat numbering)
# heavy: B1 heavy with A107L
# chain: B1 chain
# light: B1 light
# notes: one-arm antibody (one Fab)
# B4: CE115HA000 Y100aQ one-arm antibody (antibody, human IgG1, kappa, L234A L235A, N297A, name in Kabat numbering)
# heavy: B1 heavy with A107Q
# chain: B1 chain
# light: B1 light
# notes: one-arm antibody (one Fab)
# B5: CE115HA000 Y100aG one-arm antibody (antibody, human IgG1, kappa, L234A L235A, N297A, name in Kabat numbering)
# heavy: B1 heavy with A107G
# chain: B1 chain
# light: B1 light
# notes: one-arm antibody (one Fab)
# B6: CE115HA000 Y100aK one-arm antibody (antibody, human IgG1, kappa, L234A L235A, N297A, name in Kabat numbering)
# heavy: B1 heavy with A107K
# chain: B1 chain
# light: B1 light
# notes: one-arm antibody (one Fab)
# B7: CE115HA000 Y100aD one-arm antibody (antibody, human IgG1, kappa, L234A L235A, N297A, name in Kabat numbering)
# heavy: B1 heavy with A107D
# chain: B1 chain
# light: B1 light
# notes: one-arm antibody (one Fab)
# B8: CE115HA000 Y100aF one-arm antibody (antibody, human IgG1, kappa, L234A L235A, N297A, name in Kabat numbering)
# heavy: B1 heavy with A107F
# chain: B1 chain
# light: B1 light
# notes: one-arm antibody (one Fab)
# B9: CE115HA000 D101A one-arm antibody (antibody, human IgG1, kappa, L234A L235A, N297A, name in Kabat numbering)
# heavy: B1 heavy with A107Y, D110A
# chain: B1 chain
# light: B1 light
# notes: one-arm antibody
# B10: CE115HA000 D73N one-arm antibody (antibody, human IgG1, kappa, L234A L235A, N297A, name in Kabat numbering)
# heavy: B1 heavy with D76N, A107Y
# chain: B1 chain
# light: B1 light
# notes: one-arm antibody
# B11: CE115HA000 D73E one-arm antibody (antibody, human IgG1, kappa, L234A L235A, N297A, name in Kabat numbering)
# heavy: B1 heavy with D76E, A107Y
# chain: B1 chain
# light: B1 light
# notes: one-arm antibody
# B12: CE115HA000 A99D one-arm antibody (antibody, human IgG1, kappa, L234A L235A, N297A, name in Kabat numbering)
# heavy: B1 heavy with A105D, A107Y
# chain: B1 chain
# light: B1 light
# notes: one-arm antibody
# B13: CE115HA000 D73G one-arm antibody (antibody, human IgG1, kappa, L234A L235A, N297A, name in Kabat numbering)
# heavy: B1 heavy with D76G, A107Y
# chain: B1 chain
# light: B1 light
# notes: one-arm antibody
# B14: CE115HA000 D72A one-arm antibody (antibody, human IgG1, kappa, L234A L235A, N297A, name in Kabat numbering)
# heavy: B1 heavy with D75A, A107Y
# chain: B1 chain
# light: B1 light
# notes: one-arm antibody
# B15: CE115HA000 D73R one-arm antibody (antibody, human IgG1, kappa, L234A L235A, N297A, name in Kabat numbering)
# heavy: B1 heavy with D76R, A107Y
# chain: B1 chain
# light: B1 light
# notes: one-arm antibody
# B16: CE115HA000 A99S one-arm antibody (antibody, human IgG1, kappa, L234A L235A, N297A, name in Kabat numbering)
# heavy: B1 heavy with A105S, A107Y
# chain: B1 chain
# light: B1 light
# notes: one-arm antibody
# B17: CE115HA000 D73K one-arm antibody (antibody, human IgG1, kappa, L234A L235A, N297A, name in Kabat numbering)
# heavy: B1 heavy with D76K, A107Y
# chain: B1 chain
# light: B1 light
# notes: one-arm antibody
# B18: CE115HA000 A99Q one-arm antibody (antibody, human IgG1, kappa, L234A L235A, N297A, name in Kabat numbering)
# heavy: B1 heavy with A105Q, A107Y
# chain: B1 chain
# light: B1 light
# notes: one-arm antibody
# B19: CE115HA000 A102P one-arm antibody (antibody, human IgG1, kappa, L234A L235A, N297A, name in Kabat numbering)
# heavy: B1 heavy with A107Y, A111P
# chain: B1 chain
# light: B1 light
# notes: one-arm antibody
# B20: CE115HA000 D72E one-arm antibody (antibody, human IgG1, kappa, L234A L235A, N297A, name in Kabat numbering)
# heavy: B1 heavy with D75E, A107Y
# chain: B1 chain
# light: B1 light
# notes: one-arm antibody
# B21: CE115HA000 A99Y one-arm antibody (antibody, human IgG1, kappa, L234A L235A, N297A, name in Kabat numbering)
# heavy: B1 heavy with A105Y, A107Y
# chain: B1 chain
# light: B1 light
# notes: one-arm antibody
# B22: CE115HA000 A99K one-arm antibody (antibody, human IgG1, kappa, L234A L235A, N297A, name in Kabat numbering)
# heavy: B1 heavy with A105K, A107Y
# chain: B1 chain
# light: B1 light
# notes: one-arm antibody
# B23: CE115HA000 D73T one-arm antibody (antibody, human IgG1, kappa, L234A L235A, N297A, name in Kabat numbering)
# heavy: B1 heavy with D76T, A107Y
# chain: B1 chain
# light: B1 light
# notes: one-arm antibody
# B24: CE115HA000 A99L one-arm antibody (antibody, human IgG1, kappa, L234A L235A, N297A, name in Kabat numbering)
# heavy: B1 heavy with A105L, A107Y
# chain: B1 chain
# light: B1 light
# notes: one-arm antibody
# B25: CE115HA000 D73A one-arm antibody (antibody, human IgG1, kappa, L234A L235A, N297A, name in Kabat numbering)
# heavy: B1 heavy with D76A, A107Y
# chain: B1 chain
# light: B1 light
# notes: one-arm antibody
# B26: CE115HA000 A102I one-arm antibody (antibody, human IgG1, kappa, L234A L235A, N297A, name in Kabat numbering)
# heavy: B1 heavy with A107Y, A111I
# chain: B1 chain
# light: B1 light
# notes: one-arm antibody
# B27: CE115HA000 D72V one-arm antibody (antibody, human IgG1, kappa, L234A L235A, N297A, name in Kabat numbering)
# heavy: B1 heavy with D75V, A107Y
# chain: B1 chain
# light: B1 light
# notes: one-arm antibody
# B28: CE115HA000 A102Y one-arm antibody (antibody, human IgG1, kappa, L234A L235A, N297A, name in Kabat numbering)
# heavy: B1 heavy with A107Y, A111Y
# chain: B1 chain
# light: B1 light
# notes: one-arm antibody
# B29: CE115HA000 A102V one-arm antibody (antibody, human IgG1, kappa, L234A L235A, N297A, name in Kabat numbering)
# heavy: B1 heavy with A107Y, A111V
# chain: B1 chain
# light: B1 light
# notes: one-arm antibody
# B30: CE115HA000 D101F one-arm antibody (antibody, human IgG1, kappa, L234A L235A, N297A, name in Kabat numbering)
# heavy: B1 heavy with A107Y, D110F
# chain: B1 chain
# light: B1 light
# notes: one-arm antibody
# B31: CE115HA000 A99F one-arm antibody (antibody, human IgG1, kappa, L234A L235A, N297A, name in Kabat numbering)
# heavy: B1 heavy with A105F, A107Y
# chain: B1 chain
# light: B1 light
# notes: one-arm antibody
# B32: CE115HA000 A99T one-arm antibody (antibody, human IgG1, kappa, L234A L235A, N297A, name in Kabat numbering)
# heavy: B1 heavy with A105T, A107Y
# chain: B1 chain
# light: B1 light
# notes: one-arm antibody
# Target: T1, CD3 epsilon homodimer protein (UniProt P07766 23-126)
# T1 construct: Immobilized on Sensor chip CM4 by amine coupling; construct not described; also called CD3 (CD3 epsilon)
# Assay: SPR Biacore T200, CD3 epsilon homodimer on CM4 chip, antibody as analyte;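 further: Amine-coupled CD3 epsilon homodimer, run at 25 °C in HBS-EP+ buffer, ratio is bound amount of each single-residue H chain variant over that of the parent antibody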
row,Binder,ratio of amounts bound (Y/X vs CE115HA000)
1,B1,0.62
2,B2,0.64
3,B3,0.48
4,B4,0.56
5,B5,1.23
6,B6,0.9
7,B7,0.31
8,B8,0.87

# Target: T2, CD3 epsilon homodimer protein (UniProt P07766 23-126)
# T2 construct: Construct of the homodimer protein is not described; also called CD3 (CD3 epsilon)
# Assay: SPR (Biacore T200), CD3 epsilon homodimer on CM4 chip, one-arm antibody as analyte; ratio to unaltered CE115HA000;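 further: surface plasmon resonance run at 25 °C with HBS-EP+ as running buffer, CD3 epsilon homodimer attached by amine coupling, antibody passed over as analyte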
# T2 sequence (P07766 23-126): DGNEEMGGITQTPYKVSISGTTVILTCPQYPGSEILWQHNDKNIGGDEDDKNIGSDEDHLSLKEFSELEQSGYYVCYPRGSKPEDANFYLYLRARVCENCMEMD
row,Binder,KD ratio (KD value of CE115HA000/KD value of the altered form)
1,B9,0.86
2,B10,0.7
3,B11,0.56
4,B12,1.03
5,B13,0.78
6,B14,1.19
7,B15,0.79
8,B16,0.76
9,B17,0.74
10,B18,0.85
11,B19,3.51
12,B20,0.73
13,B21,1.25
14,B22,1.4
15,B23,0.78
16,B24,1
17,B25,0.73
18,B26,1.29
19,B27,1.17
20,B28,1
21,B29,1.27
22,B30,0.73
23,B31,1.15
24,B32,0.93
